Data on five molecules can be found in publication PMC6953907.

The target of data set [1] is T1, DDX17 Core WT (human, UniProt Q92841-1 32-477). Put plainly: X-ray crystallography.
Data set [2] deals with T1, DDX17 Core WT. Put plainly: X-ray crystallography. The source holds these as a separate data set.
Data set [3] has as its target T1, DDX17 Core WT. Put plainly: EMSA.

T1 sequence (Q92841 111-556): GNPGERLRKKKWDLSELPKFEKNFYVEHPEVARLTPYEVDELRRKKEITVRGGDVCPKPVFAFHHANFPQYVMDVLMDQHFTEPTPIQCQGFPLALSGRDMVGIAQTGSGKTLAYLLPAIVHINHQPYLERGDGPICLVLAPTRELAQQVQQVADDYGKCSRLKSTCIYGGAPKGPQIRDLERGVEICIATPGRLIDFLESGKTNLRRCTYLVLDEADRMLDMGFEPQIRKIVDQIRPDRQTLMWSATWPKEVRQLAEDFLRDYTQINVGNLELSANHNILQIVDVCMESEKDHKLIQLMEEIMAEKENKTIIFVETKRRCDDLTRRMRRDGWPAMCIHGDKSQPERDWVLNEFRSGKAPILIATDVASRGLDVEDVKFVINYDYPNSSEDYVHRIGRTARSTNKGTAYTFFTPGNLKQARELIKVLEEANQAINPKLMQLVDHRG

As to CACACACCUG (ssRNA) [125a-oligo1], in the data set with DDX17 Core WT [1], the binding result is “binds”.
AUUCAUCCAA (ssRNA) [18a-oligo1]: the binding result with DDX17 Core WT [1] is recorded as “binds”.
With UUUUUUUUUU (ssRNA) [rU10], the binding result in the data set with DDX17 Core WT [2] is “binds”.
With ACACACCUGG (ssRNA) [125a-oligo2], in the data set with DDX17 Core WT [1], the binding result was “binds”.
AAAAAAAAAA (ssRNA) [rA10]: the binding result with DDX17 Core WT [3] is listed as “no binding”.
